± gives the half width of the 95% confidence interval.
Key:
[1] = folding stability dG unfold (combined trypsin and chymotrypsin); higher = more stable
Summary of the method: (§1)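 Digests were run with trypsin and chymotrypsin at 11 concentrations in threefold dilutions, plus a no-protease condition, on designed mini-proteins in a PA-tagged cDNA display construct. The mini-proteins were under 80 residues, had no cysteine, and were kept only when AlphaFold2 dimer inter-PAE was above 15. After sequencing, Bayesian fitting of the counts gave K50, from which unfolding free energy was derived against a sequence-predicted unfolded-state K50 and a shared folded-state K50, per protease or combined.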

[2] = folding stability dG unfold from chymotrypsin proteolysis; higher = more stable
Summary of the method: as §1

[3] = folding stability dG unfold from trypsin proteolysis; higher = more stable
Summary of the method: as §1

Sequence	folding stability dG unfold [1] [kcal/mol]	folding stability dG unfold [2] [kcal/mol]	folding stability dG unfold [3] [kcal/mol]
SADKILVRVVFNLGGPPVELTLEADSPEELVEATIAVIKPLFPDADIREVKLFVYNPNTDEVEEFTLTASAG [r14_54_TrMRF]	3.06 ± 0.059	3.341 ± 0.021	2.44 ± 0.043
SMVKIYAAPNVPPEQREAIERLVKRILENPDIPIDPETIGKLIKEEAGNPELTIDRIEILPLVPPGVAEKSA [r9_620_TrMRF]	0.794 ± 0.099	0.896 ± 0.082	0.79 ± 0.064
SAGGSAGGSSIEEEYAANPENVTVTLPSPGGTPASTITVGNAPVTVTPLPDGDSAVTLDPANKSAGGSAGGS [r12_805_JUSTAS]	1.4 ± 0.043	1.69 ± 0.035	0.727 ± 0.045
SAGGMTLEFELEAEPLEEVEKRVRELLRELGFPESVEITIEPKKPDDGSVIYPVKVTLNDPALEARLSAGGS [r8_85_JUSTAS]	1.11 ± 0.097	1.22 ± 0.036	1.04 ± 0.038
SAGGSAGGMTFKDPNSNTTASVTEVTPTSVTVTYTLSDGTTRTVTVPTSLVTPDSTVPFTVTSSSAGGSAGG [r6_152_JUSTAS]	0.892 ± 0.064	0.789 ± 0.16	0.983 ± 0.032
SAMRIRIEVETRTGPDGRKYVVVRIRDEKTGEELELVFESREEAEEAAKALAEELKKAGYEIEVEIRPPSAG [r14_263_TrROS_Hall]	5.21 ± 0.19	5.21 ± 0.2	5.23 ± 0.47
SAGMPYIKVKITVIHPDNKEKEAEFVFDLKDGKIDLKPEVIEKALEELGIPKDYEIKIEIVEIKEPDESAGG [r19_287_TrMRF]	2.81 ± 0.16	2.82 ± 0.16	2.5 ± 0.13
SAGGSAGGSAGDKGYVMVTFPIEMTQYVYDPDGKPIGQHKHEMPITVMIPPNAAKKLLQASAGGSAGGSAGG [r11_620_TrROS]	0.592 ± 0.07	0.773 ± 0.062	0.186 ± 0.067
SAGGSAGGSAGMNPVVIETTETLPNGTVVRTTEIVDPSNPDKVVSTKTEISSVPSNAPLLSAGGSAGGSAGG [r17_299_JUSTAS]	0.222 ± 0.11	0.113 ± 0.043	0.342 ± 0.082
SMEEELPPKVTEVVVKVPLSPDASPEEIAAARALAAELAAALEAAGYRDVEVTVEPTEPGALVIRARVVVSA [r9_865_JUSTAS]	3.908 ± 0.034	4.36 ± 0.057	2.79 ± 0.036
SAGGMTITIDPTPDGVRIKIYDDGKPREIPVAPEVLELIQQNPTLEEIIRELFPPGHPIEKIEIEPWSAGGS [r16_567_TrROS]	1.15 ± 0.22	1.03 ± 0.17	1.57 ± 0.071
SAGGSAGGSAGKNPDGQPAPTIEIEPRTRELPDNGYKITIMRIRFPDSGVEFPMIMISPPSAGGSAGGSAGG [r17_31_TrROS]	1.29 ± 0.1	1.51 ± 0.091	0.833 ± 0.072
SSITVVETREERVTLPDGREVTRRETRVVELSEEELRRLLRERLREALREAGIEEVTEEDLDSPEVLAALSA [r9_263_TrROS_Hall]	1.86 ± 0.12	2.2 ± 0.032	1.2 ± 0.054
SAGMKKKLYSGEIKEIEEALEKGLSLEEIEEIFSKGANGSLELEEENKKIYIFALEDKKAFLLVEYNPESAG [r5_343_TrMRF]	1.1 ± 0.26	1.46 ± 0.19	0.441 ± 0.14
SAVLRIPNPITGEVRTLTLPTEVPAVSPDGVTSFRSPENLAAAIRALPSDVKVLSVVEHPDGTVTIVVDPSA [r9_997_TrMRF]	-0.0685 ± 0.064	-0.414 ± 0.15	0.102 ± 0.059
SAGGSAGGSAGGMKKKIPNKTLTIEIEVKLENGLYLKMKITVNKNGEIKIEIEVIPKEDLSAGGSAGGSAGG [r7_214_TrROS_Hall]	3.08 ± 0.14	3.33 ± 0.073	2.57 ± 0.12
SAGPPEFELVGEFEAEAPGGVPVRVRVIRLPGGDVLVVVTHPDDTVTLGFIPAETGEWHLALSFPADVLSAG [r5_750_TrMRF]	2.58 ± 0.057	2.369 ± 0.014	2.82 ± 0.057
SALGEEEVLRALKAAAAPLPKVEPVLRKVTVLVPETGEPFEVEVLAYRLENGEIFPVPAEATEALAEALASA [r9_1056_TrMRF]	-0.274 ± 0.19	-0.1 ± 0.41	-0.549 ± 0.36
SAGGSAGGSASITFMLMKFDPEDNRVEVYTYKIKIERDPNGLKKFKIEPVKRQRINPDDLKAISAGGSAGGS [r12_374_TrROS]	2.98 ± 0.25	3.48 ± 0.09	2.13 ± 0.12
SAGGSAGGSGITIPAGSPEKVYELLSALEKLGFKPKKVSVSGNYVIVDFENGIPVNIEINPGKSAGGSAGGS [r20_93_TrMRF]	2.38 ± 0.052	2.85 ± 0.039	1.06 ± 0.059
SAGGMKKPIKAKIKIVKFEDGYLILIELPDGKIIAFKSPEELKAALEKFPEIEITEIEIIPPEEFLKKSAGG [r13_730_TrMRF]	3.07 ± 0.22	3.47 ± 0.19	1.63 ± 0.067

Source: the supplement of paper PMC12764529
